Assay results from the supplement of paper PMC9112550, “Optimization of the antimicrobial peptide Bac7 by deep mutational scanning” (BMC Biology, 2022).

System: Escherichia coli TOP10
Assay: shrunken log2 fold change of peptide-encoding DNA abundance (4.5 h post-induction vs induction); higher = less antimicrobial activity (less host growth inhibition)
Details: time post-induction: 4.5 h; library: site-saturation at positions 5, 18, 19, 20
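Further: peptides expressed intracellularly from a pBAD plasmid library in pooled LB shake-flask culture, induced with 0.3% L-arabinose, DNA abundance read by NGS, three biological replicates, DESeq2 with apeglm shrinkage.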

| Sequence | shrunken log2 fold change |
| --- | --- |
| RRIRRRPPRLPRPRPRPMITPRP | -0.172 |
| RRIRIRPPRLPRPRPRPMEWPRP | -0.00133 |
| RRIRKRPPRLPRPRPRPYQKPRP | -0.00762 |
| RRIRKRPPRLPRPRPRPEWIPRP | 0.454 |
| RRIRLRPPRLPRPRPRPNGMPRP | -0.0765 |
| RRIRDRPPRLPRPRPRPGKAPRP | 0.00543 |
| RRIRDRPPRLPRPRPRPPDWPRP | 0.421 |
| RRIRSRPPRLPRPRPRPLCQPRP | -0.135 |
| RRIRSRPPRLPRPRPRPFKCPRP | -0.226 |
| RRIRGRPPRLPRPRPRPNNHPRP | -0.15 |
| RRIRARPPRLPRPRPRPGPRPRP | 1.22 |
| RRIRIRPPRLPRPRPRPPGRPRP | 0.336 |
| RRIRDRPPRLPRPRPRPPFEPRP | 0.254 |
| RRIRDRPPRLPRPRPRPCEAPRP | -0.0794 |
| RRIRCRPPRLPRPRPRPQMMPRP | -0.346 |
| RRIRNRPPRLPRPRPRPMTQPRP | -0.249 |
| RRIRVRPPRLPRPRPRPGTLPRP | -0.174 |
| RRIRCRPPRLPRPRPRPQHTPRP | -0.0159 |
| RRIRWRPPRLPRPRPRPKDSPRP | 0.118 |
| RRIRERPPRLPRPRPRPISKPRP | -0.575 |
| RRIRPRPPRLPRPRPRPQIGPRP | 0.128 |
| RRIRGRPPRLPRPRPRPMLYPRP | 0.322 |
| RRIRRRPPRLPRPRPRPYTGPRP | -0.126 |

| Sequence | shrunken log2 fold change |
| --- | --- |
| RRIRYRPPRLPRPRPRPYRAPRP | -0.0919 |
| RRIRWRPPRLPRPRPRPHWDPRP | -0.0409 |
| RRIRLRPPRLPRPRPRPYCIPRP | -0.121 |
| RRIRTRPPRLPRPRPRPVFVPRP | 0.0253 |
| RRIRWRPPRLPRPRPRPWVMPRP | -0.129 |
| RRIRMRPPRLPRPRPRPHPQPRP | 0.427 |
| RRIRMRPPRLPRPRPRPVGQPRP | -0.00911 |
| RRIRERPPRLPRPRPRPWSQPRP | -0.0521 |
| RRIRLRPPRLPRPRPRPKTNPRP | -0.0556 |
| RRIRARPPRLPRPRPRPVRSPRP | 0.345 |
| RRIRCRPPRLPRPRPRPLFPPRP | -0.2 |
| RRIRMRPPRLPRPRPRPNIPPRP | -0.207 |
| RRIRHRPPRLPRPRPRPELCPRP | -0.135 |
| RRIRRRPPRLPRPRPRPSQYPRP | 0.0176 |
| RRIRKRPPRLPRPRPRPLKVPRP | 0.237 |
| RRIRRRPPRLPRPRPRPKYVPRP | -0.194 |
| RRIRHRPPRLPRPRPRPAYAPRP | -0.182 |
| RRIRERPPRLPRPRPRPVVHPRP | -0.0247 |
| RRIRRRPPRLPRPRPRPTQHPRP | 0.691 |
| RRIRPRPPRLPRPRPRPTSCPRP | 0.193 |
| RRIRIRPPRLPRPRPRPTMNPRP | -1.01 |
| RRIRGRPPRLPRPRPRPIYRPRP | 0.2 |
| RRIRWRPPRLPRPRPRPSYLPRP | -0.417 |

| Sequence | shrunken log2 fold change |
| --- | --- |
| RRIRKRPPRLPRPRPRPFAAPRP | 0.662 |
| RRIRLRPPRLPRPRPRPDEDPRP | 0.0258 |
| RRIRMRPPRLPRPRPRPCRQPRP | 0.0303 |
| RRIRSRPPRLPRPRPRPFIRPRP | -0.412 |
| RRIRPRPPRLPRPRPRPGLVPRP | 0.287 |
| RRIRVRPPRLPRPRPRPHWDPRP | -0.473 |
| RRIRQRPPRLPRPRPRPNGWPRP | -0.0145 |
| RRIRSRPPRLPRPRPRPAIQPRP | -0.21 |
| RRIRHRPPRLPRPRPRPKFGPRP | 0.0962 |
| RRIRIRPPRLPRPRPRPFSSPRP | -0.181 |
| RRIRVRPPRLPRPRPRPMCSPRP | -0.237 |
| RRIRKRPPRLPRPRPRPQFIPRP | -0.0823 |
| RRIRCRPPRLPRPRPRPPIHPRP | -0.248 |
| RRIRARPPRLPRPRPRPSNTPRP | -0.31 |
| RRIRHRPPRLPRPRPRPRPCPRP | 0.227 |
| RRIRPRPPRLPRPRPRPWFLPRP | -0.458 |
| RRIRSRPPRLPRPRPRPNGSPRP | -0.21 |
| RRIRIRPPRLPRPRPRPHGDPRP | -0.125 |
| RRIRFRPPRLPRPRPRPHMMPRP | -0.283 |
| RRIRARPPRLPRPRPRPDAQPRP | 1.35 |
| RRIRSRPPRLPRPRPRPRSFPRP | 0.124 |
| RRIRTRPPRLPRPRPRPTMAPRP | 0.201 |
| RRIRERPPRLPRPRPRPEQMPRP | -6.54e-05 |

| Sequence | shrunken log2 fold change |
| --- | --- |
| RRIRWRPPRLPRPRPRPTHMPRP | 0.206 |
| RRIRFRPPRLPRPRPRPIIPPRP | -0.677 |
| RRIRDRPPRLPRPRPRPEIAPRP | 1.31 |
| RRIRLRPPRLPRPRPRPKWMPRP | -0.00339 |
| RRIRARPPRLPRPRPRPMDWPRP | 0.341 |
| RRIRERPPRLPRPRPRPLIGPRP | -0.0644 |
| RRIRFRPPRLPRPRPRPAVVPRP | -0.231 |
| RRIRPRPPRLPRPRPRPQQEPRP | 0.0468 |
| RRIRKRPPRLPRPRPRPGNCPRP | 0.0147 |
| RRIRKRPPRLPRPRPRPMRAPRP | 1.23 |
| RRIRPRPPRLPRPRPRPQPFPRP | -0.149 |
| RRIRARPPRLPRPRPRPIVGPRP | -0.0201 |
| RRIRFRPPRLPRPRPRPEIHPRP | -0.227 |
| RRIRWRPPRLPRPRPRPNERPRP | 0.119 |
| RRIRPRPPRLPRPRPRPRSTPRP | 0.347 |
| RRIRNRPPRLPRPRPRPTTEPRP | -0.257 |
| RRIRCRPPRLPRPRPRPAKIPRP | -0.361 |
| RRIRIRPPRLPRPRPRPDCNPRP | -0.164 |
| RRIRDRPPRLPRPRPRPSMFPRP | -0.144 |
| RRIRYRPPRLPRPRPRPQWGPRP | 0.122 |
| RRIRCRPPRLPRPRPRPFGEPRP | -0.282 |
| RRIRCRPPRLPRPRPRPRGGPRP | 0.508 |
